Values of other authors, collected in paper PMC6952583 (Chembiochem : a European journal of chemical biology, 2019).

Target: ComD2 receptor (Streptococcus pneumoniae serotype 4, UniProt A0A0H2US84)
Conditions: read-out: ComD2 EC50; TIGR4pcomX::lacZ reporter strain; ref [20]

In the case of “CSP2(15): truncated version of CSP2, starting scaffold (EMRISRIILDFLFLR)”, the EC50 is given as 21.9 nM.
